Where two headings read alike, the source gives them in different places.
How the values were obtained:
[1] = test system: MBP-85-99-induced EAE in MBP-TCR/DR2-Tg mice
Description: HLA-DR2 positive male and female mice between 8 and 12 weeks of age were immunized subcutaneously at four sites on the flanks with 0.2 ml of an emulsion of 200 μg immunogenic peptide and complete Freund's adjuvant containing 400 μg of heat-killed Mycobacterium tuberculosis H37RA (Difco, Detroit, Mich.) (Vandenbark et al, J Immunol 171:127-133, 2003; Buenafe et al, Immunology 130:114-124, 2010). In addition, mice were given pertussis toxin (Ptx) from List Biological Laboratories (Campbell, Calif.) on days 0 and 2 post-immunization (75 ng and 200 ng per mouse, respectively). Immunized mice were assessed daily for clinical signs of EAE on a 6 point scale of combined hind limb and forelimb paralysis scores. For hind limb scores: 0=normal; 0.5=limp tail or mild hind limb weakness (e.g., a mouse cannot resist inversion after a 90° turn of the base of the tail); 1=limp tail and mild hind limb weakness; 2=limp tail and moderate hind limb weakness (e.g., an inability of the mouse to rapidly right itself after inversion); 3=limp tail and moderately severe hind limb weakness (e.g., inability of the mouse to right itself after inversion and clear tilting of hind quarters to either side while walking); 4=limp tail and severe hind limb weakness (hind feet can move but drag more frequently than face forward); 5=limp tail and paraplegia (no movement of hind limbs). Front limb paralysis scores are either 0.5 for clear restriction in normal movement or 1 for complete forelimb paralysis. The combined score is the sum of the hind limb score and the forelimb score.
(§3) Rarely, there was mortality of HLA-DR2 mice with severe EAE and in these cases, mice were scored as a 6 for the remainder of the experiment. Mean EAE scores and standard deviations for mice grouped according to initiation of RTL or vehicle treatment were calculated for each day and summed for the entire experiment (Cumulative Disease Index, CDI, represents total disease load). Daily mean scores were analyzed by a two-tailed Mann Whitney U test for nonparametric comparisons between vehicle and pDR2 treatment groups. Mean CDIs were analyzed by a one way ANOVA with Tukey post-test, and a nonparametric one way Kruskal-Wallis ANOVA with Dunn's multiple comparisons post-test to confirm significance between all groups.
(§4) pDR2 constructs (Table 3) were injected subcutaneously daily for 5 days at the indicated doses to treat EAE induced in HLA-DR2-Tg and MBP-TCR/DR2-Tg mice and clinical signs were scored as described above. […] Fab1B11 alone in vehicle was run as a negative control.

[2] = test system: mMOG-35-55-induced EAE in DR*1501-Tg mice; details: for effect on EAE (in words): mMOG-35-55-induced EAE
CD80 = CD80 expression on CD11b+ monocytes from spinal cord of treated EAE mice; format: in vivo, mouse; details: day 15 post-immunization
Description: EAE was induced in mice by immunization with mMOG-35-55. At disease onset, the mice were treated with one of the following constructs: (i) pDR2 with covalently bound mMOG-35-55 (100 μg), (ii) pDR2 without peptide (1000 μg), (iii) DR-α1 (750 μg), or (iv) vehicle alone. The constructs were administered subcutaneously for two sequential days. On day 15 post-immunization, mice were sacrificed and spinal cords were harvested and pooled for each group. Isolated cells were stained for CD74, CD11b, CD80, ICAM, and HLA-DR expression and analyzed by FACS.

CD74 [3] = target: T1, CD74 (Mus musculus, UniProt P04441); experiment: Coimmunoprecipitation of FITC-labeled constructs with CD74; format: binding; details: FITC-labeled construct, bead-immunopurified CD74
T1 construct: DR*1501-Tg splenocytes were biotinylated and lysed as described above and CD74 was immunoprecipitated overnight; endogenous in cells; host or cells: splenocytes of DR*1501-Tg mice (surface-biotinylated, lysed in 1% CHAPS/TEN; CD74 captured on Protein L / ln-1 beads)
T1 sequence (P04441 1-215 isoform P04441-2): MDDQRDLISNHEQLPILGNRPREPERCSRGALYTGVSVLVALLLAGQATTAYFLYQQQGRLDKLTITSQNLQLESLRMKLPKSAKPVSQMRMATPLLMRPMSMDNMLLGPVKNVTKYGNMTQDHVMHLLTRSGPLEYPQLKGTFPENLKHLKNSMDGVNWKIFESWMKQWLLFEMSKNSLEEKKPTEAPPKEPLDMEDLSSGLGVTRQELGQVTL
Description: For immunoprecipitation experiments, antibody TU39 (BD Pharmingen) was pre-bound to bead-conjugated Protein A for 2 hours in ice-cold TEN-TX100 or TEN-CHAPS followed by RTL binding to these complexes. Lysate (previously pre-cleared with bead-conjugated Protein A) was added to the tube and binding was carried out overnight at 4° C. with soft orbital shaking Samples were extensively washed with TEN buffer and the appropriate detergent. For CD74 immunoprecipitation, ln-1 mAb was adsorbed to bead-conjugated Protein L as described above and pre-cleared lysate was added to this mixture. When necessary, bound material was eluted by boiling the immune complexes in electrophoresis sample buffer and analyzed by SDS-PAGE and Western blot.
(§1) For direct binding of RTL constructs, Protein-L/ln-1/CD74 complexes were prepared as described above. Labeled ligand constructs were incubated for 4 hours at 4° C. in 1% CHAPS in TEN buffer and free ligand was removed by extensive washing. Elution of bound proteins was carried out as described above and the eluate was analyzed by SDS-P AGE. […] In all assays involving fluorescent labeling, the chromophore was detected by scanning at the appropriate wavelength using a Molecular Imager® FX scanner (Bio-Rad) and the fluorescence intensity was determined using Quantity One® software (Bio-Rad) associated with the imager.

CD74 [4] = target: T1, CD74; experiment: Direct binding of FITC-labeled constructs to immuno-adsorbed CD74; details: FITC-labeled ligand, immuno-adsorbed CD74, 4 hours at 4° C., 1% CHAPS; read-out: CD74 One binding site KD
Description: (§2) In order to test ligand binding to the separate components of the RTL receptor, DR*1501-Tg splenocytes were biotinylated and lysed as described above and CD74 was immunoprecipitated overnight at 4° C. with the anti-CD74 monoclonal antibody ln-1. Immune complexes (Protein L-beads/ln-1/CD74) were analyzed for their ability to bind FITC-labeled pDR2RTL constructs by performing a direct binding saturation with increasing concentration of the different constructs (0 to 10 nM). Binding was carried out for 4 hours at 4° C. with gentle shaking and in the presence of 1% CHAPS in TEN buffer. Afterwards the complexes were washed thoroughly with 1% CHAPS/TEN and once with only TEN buffer to remove excess detergent. Bound proteins were eluted in 2% SDS electrophoresis sample buffer at 90° C. for 6 to 8 minutes and beads were sedimented. After the supernatant was collected and proteins separated using 10-20% SDS-PAGE, the gel was scanned for FITC chromophore and quantified by densitometry. Ligand concentration was plotted versus the fluorescence intensity of the bands and the curve generated was fit to one or two binding sites with the GraphPad Prism® Software. […] Direct binding to saturating concentrations of the pDR2 constructs was carried out and analyzed as described above.

[5] = target: MHC class II from DR*1501-Tg mice; experiment: Direct binding of FITC-labeled constructs to MHC class II immuno-adsorbed from CD74-depleted lysate; parameters: species or system mouse; details: FITC-labeled ligand, read-out: MHC Class II One binding site KD
Description: as §2

[6] = test system: hMOG-35-55-induced EAE in DR*1502-Tg mice; details: treated at disease onset
Description: In addition, mice were given pertussis toxin (Ptx) from List Biological Laboratories (Campbell, Calif.) on days 0 and 2 post-immunization (75 ng and 200 ng per mouse, respectively). Immunized mice were assessed daily for clinical signs of EAE on a 6 point scale of combined hind limb and forelimb paralysis scores. For hind limb scores: 0=normal; 0.5=limp tail or mild hind limb weakness (e.g., a mouse cannot resist inversion after a 90° turn of the base of the tail); 1=limp tail and mild hind limb weakness; 2=limp tail and moderate hind limb weakness (e.g., an inability of the mouse to rapidly right itself after inversion); 3=limp tail and moderately severe hind limb weakness (e.g., inability of the mouse to right itself after inversion and clear tilting of hind quarters to either side while walking); 4=limp tail and severe hind limb weakness (hind feet can move but drag more frequently than face forward); 5=limp tail and paraplegia (no movement of hind limbs). Front limb paralysis scores are either 0.5 for clear restriction in normal movement or 1 for complete forelimb paralysis. The combined score is the sum of the hind limb score and the forelimb score.
as §3, §4

CD74 [7] = target: T1, CD74; experiment: Competition with labeled RTL1000 for binding to immunoprecipitated CD74; details: unlabeled competitor
Description: as §1

CD74 [8] = target: T2, CD74 (Mus musculus, UniProt P04441); experiment: CD74 cell-surface expression on CD11b+ monocytes in vitro (FACS); format: cell-based; details: naïve CD11b+ monocytes, 1 hour at 37° C.
T2 construct: endogenous in cells; host or cells: CD11b+ monocytes of DR2 (DR*1501)-Tg mice: naive blood cells in vitro; blood, spleen and spinal cord cells of treated EAE mice
T2 sequence (P04441 1-279): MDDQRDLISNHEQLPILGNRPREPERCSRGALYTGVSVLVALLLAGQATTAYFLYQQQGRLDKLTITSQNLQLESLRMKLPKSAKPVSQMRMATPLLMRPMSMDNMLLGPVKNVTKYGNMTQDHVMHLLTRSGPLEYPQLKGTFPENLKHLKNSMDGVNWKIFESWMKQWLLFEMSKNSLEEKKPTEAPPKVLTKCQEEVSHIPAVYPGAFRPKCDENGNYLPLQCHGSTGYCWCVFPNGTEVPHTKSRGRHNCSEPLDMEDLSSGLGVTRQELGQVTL
Description: Analysis of naive DR2 PBMC subtypes was preformed using four-color (fluorescein isothiocyanate (FITC), phycoerythrin (PE), propidium iodide, allophycocyanin) flow cytometry. Blood was collected from naive DR2 mice through cardiac exsanguination into 1X PBS/EDTA. After washing blood in 1X PBS, the red blood cells were lysed with 1X RBC lysis buffer (eBioscience, Inc., San Diego, Calif.) followed by two washes in RPMI. One million cells were incubated in RPMI with 1 μg unlabeled pDR2, 1 μg pDR2FITC, or 1 μg Fab Neutralized pDR2FITC for one hour at 37° C. For samples assessing Fab neutralization of pDR2 binding, pDR2s were incubated with 1:1 molar ratio of Fab1B11 or FabD2 for two hours at room temperature prior to incubation with cells, pDR2 incubation was followed directly by a 30 minute incubation at 4° C. with CD3 PE (ebioscience, Inc., San Diego, Calif.), CD74 PE (Santa Cruz Biotechnology, Inc., Santa Cruz, Calif.), or CD11b PE, CD11b allophycocyanin, CD11c allophycocyanin, CD19 allophycocyanin (BD Pharmingen, San Diego, Calif.). Antibodies and pDR2 were thoroughly removed by two additional washes in 1X PBS/0.5% BSA staining media. Cells were resuspended in staining media containing propidium iodide and immediately analyzed with a FACSCALIBUR™ using FCS EXPRESS™ software (BD Biosciences, San Jose, Calif.). […]

[9] = MBP-TCR/DR2-Tg mice, treated for five days following onset
[10] = DR*1501-Tg mice, mMOG-35-55/CFA/Ptx EAE, treated at disease onset

B1: RTL302-5D: Human HLA DR2 (DRB1*1501/DRA*0101) β1α1 domains (V102D, I104D, A106D, F108D, L110D), no peptide (protein)
chain: MGDTRPRFLWQPKRECHFFNGTERVRFLDRYFYNQEESVRFDSDVGEFRAVTELGRPDAEYWNSQKDILEQARAAVDTYCRHNYGVVESFTVQRRVIKEEHDIDQDEDYDNPDQSGEFMFDFDGDEIFHVDMAKKETVWRLEEFGRFASFEAQGALANIAVDKANLEIMTKRSNYTPITN
- effect on EAE (in words) ([1]; MBP-85-99-induced EAE): ineffective at treating EAE
- CDI [1, 9]: 43.3 ± 12.0
- Incidence [1, 9]: 6/6
- Mortality [1, 9]: 0
- Onset [1, 9]: 17.5 ± 5.0
- Peak [1, 9]: 3.7 ± 0.8
- CDI ([2]; 100 μg x 5 (Table 11)): 43.1 ± 10.6
- Incidence ([2]; 100 μg x 5 (Table 11)): 9/9
- Mortality ([2]; 100 μg x 5 (Table 11)): 0
- Onset ([2]; 100 μg x 5 (Table 11)): 11.7 ± 1.1
- Peak ([2]; 100 μg x 5 (Table 11)): 3.3 ± 0.9
- CDI ([2]; 1 mg x 2 (Table 11)): 34.2 ± 6.2
- Incidence ([2]; 1 mg x 2 (Table 11)): 3/3
- Mortality ([2]; 1 mg x 2 (Table 11)): 0
- Onset ([2]; 1 mg x 2 (Table 11)): 9.0 ± 0.0
- Peak ([2]; 1 mg x 2 (Table 11)): 2.8 ± 0.3
- Incidence [2, 10]: 9/9
- Onset [2, 10]: 11.7 ± 1.1
- Mortality ([2]; DR*1501-Tg mice, treated at disease onset): 0
- CDI ([2]; cumulative disease index, DR*1501-Tg mice, treated at disease onset): 42.9 ± 10.7
- effect on EAE (in words) ([2]; listed as pDR2/no peptide): significant reduction of daily and cumulative EAE scores compared to treatment with vehicle
- effect on EAE (in words) ([2]; listed as pDR2 without peptide): lower than those treated with vehicle alone
- Peak ([2]; peak clinical EAE score, DR*1501-Tg mice, treated at disease onset): 3.3 ± 0.9
- CD80 expression (in words) (CD80): decreased
- coimmunoprecipitation with CD74 (in words) (CD74 [3]): also coimmunoprecipitated with CD74, but at much lower levels
- Kd (CD74 [4]): > 10 nM
- Kd [5]: > 10 nM
- CDI ([6]; cumulative disease index): 36.8 ± 7.1
- Incidence ([6]; hMOG-35-55/CFA/Ptx EAE): 6/6
- Onset ([6]; hMOG-35-55/CFA/Ptx EAE): 15.0 ± 1.7
- Peak ([6]; peak clinical EAE score): 2.9 ± 0.5
- Mortality [6]: 0

B2: DR-α1: construct comprising DR-α1 domain alone (with no DR2-β1 domain or peptide) (protein)
chain: IKEEHVIIQAEFYLNPDQSGEFMFDFDGDEIFHVDMAKKETVWRLEEFGRFASFEAQGALANIAVDKANLEIMTKRSNYTPITN
- competition with pDR2/hMOG-35-55 for binding to CD74 (in words) (CD74 [7]): competed with pDR2/hMOG-35-55 for binding to CD74
- CDI ([2]; 100 μg daily X2 (Table 12)): 32.9 ± 7.8
- Incidence ([2]; 100 μg daily X2 (Table 12)): 4/4
- Mortality ([2]; 100 μg daily X2 (Table 12)): 0
- Onset ([2]; 100 μg daily X2 (Table 12)): 10.0 ± 1.2
- Peak ([2]; 100 μg daily X2 (Table 12)): 2.6 ± 0.5
- CDI ([2]; 300 μg daily X2 (Table 12)): 24.1 ± 10.3
- Incidence ([2]; 300 μg daily X2 (Table 12)): 11/11
- Mortality ([2]; 300 μg daily X2 (Table 12)): 0
- Onset ([2]; 300 μg daily X2 (Table 12)): 9.5 ± 0.8
- Peak ([2]; 300 μg daily X2 (Table 12)): 2.3 ± 0.6
- CDI ([2]; 500 μg daily X2 (Table 12)): 20.7 ± 12.7
- Incidence ([2]; 500 μg daily X2 (Table 12)): 10/10
- Mortality ([2]; 500 μg daily X2 (Table 12)): 0
- Onset ([2]; 500 μg daily X2 (Table 12)): 9.6 ± 0.7
- Peak ([2]; 500 μg daily X2 (Table 12)): 2.5 ± 0.7
- CDI ([2]; 1000 μg daily X2 (Table 12)): 21.1 ± 9.9
- Incidence ([2]; 1000 μg daily X2 (Table 12)): 6/6
- Mortality ([2]; 1000 μg daily X2 (Table 12)): 0
- Onset ([2]; 1000 μg daily X2 (Table 12)): 10.7 ± 1.0
- Peak ([2]; 1000 μg daily X2 (Table 12)): 2.3 ± 0.4
- effect on EAE (in words) [2]: lower than those treated with vehicle alone
- coimmunoprecipitation with CD74 (in words) (CD74 [3]): coimmunoprecipitated with CD74
- CD74 expression versus construct binding/concentration (in words) (CD74 [8]): inverse relationship between pMHC concentration and CD74 expression
- Kd [5]: > 10 nM

Source: patent publication US20150044245A1, “PARTIAL MHC CONSTRUCTS AND METHODS OF USE” (Oregon Health & Science University, priority 2012, published 2015)
